Experimental data published in patent US5574136.

Target: human G-CSF receptor, class 2 (plasmid pHQ2), form lacking the transmembrane domain (human)
Assay: saturation binding of murine 125I-G-CSF to COS cells transfected with pHQ2, Scatchard plot

mouse recombinant G-CSF (granulocyte colony-stimulating factor) (from UniProt P09920) (ligand)
Kd: 0.44 nM
binding sites /cell: 6000 /cell
